Experimental data as given in patent US20060263802A1 (CRUCELL HOLLAND B V, published 2006).

Assays:
Test in all cases: PEPSCAN ELISA, looped peptide, antibody 10 µg/ml
[1] = molecular target: looped/cyclic peptide … (rabies virus strain ERA)
[2] = molecular target: looped/cyclic peptide … (rabies virus strain ERA); remark: listed apart in the source
[3] = molecular target: looped/cyclic peptide … (rabies virus strain ERA); remark: listed apart in the source
[4] = molecular target: looped/cyclic peptide … (rabies virus strain ERA); remark: listed apart in the source
[5] = molecular target: looped/cyclic peptide … (rabies virus strain ERA); remark: listed apart in the source
[6] = molecular target: looped/cyclic peptide … (rabies virus strain ERA); remark: listed apart in the source
[7] = molecular target: looped/cyclic peptide … (rabies virus strain ERA); remark: listed apart in the source
[8] = molecular target: looped/cyclic peptide … (rabies virus strain ERA); remark: listed apart in the source
[9] = molecular target: looped/cyclic peptide … (rabies virus strain ERA); remark: listed apart in the source
[10] = molecular target: looped/cyclic peptide … (rabies virus strain ERA); remark: listed apart in the source
[11] = molecular target: looped/cyclic peptide … (rabies virus strain ERA); remark: listed apart in the source
[12] = molecular target: looped/cyclic peptide … (rabies virus strain ERA); remark: listed apart in the source
[13] = molecular target: looped/cyclic peptide … (rabies virus strain ERA); remark: listed apart in the source
[14] = molecular target: looped/cyclic peptide … (rabies virus strain ERA); remark: listed apart in the source
[15] = molecular target: looped/cyclic peptide … (rabies virus strain ERA); remark: listed apart in the source
[16] = molecular target: looped/cyclic peptide … (rabies virus strain ERA); remark: listed apart in the source
[17] = molecular target: looped/cyclic peptide … (rabies virus strain ERA); remark: listed apart in the source
[18] = molecular target: looped/cyclic peptide … (rabies virus strain ERA); remark: listed apart in the source
[19] = molecular target: looped/cyclic peptide … (rabies virus strain ERA); remark: listed apart in the source
[20] = molecular target: looped/cyclic peptide … (rabies virus strain ERA); remark: listed apart in the source
[21] = molecular target: looped/cyclic peptide … (rabies virus strain ERA); remark: listed apart in the source
[22] = molecular target: looped/cyclic peptide … (rabies virus strain ERA); remark: listed apart in the source
[23] = molecular target: looped/cyclic peptide … (rabies virus strain ERA); remark: listed apart in the source
[24] = molecular target: looped/cyclic peptide … (rabies virus strain ERA); remark: listed apart in the source
[25] = molecular target: looped/cyclic peptide … (rabies virus strain ERA); remark: listed apart in the source
[26] = molecular target: looped/cyclic peptide … (rabies virus strain ERA); remark: listed apart in the source
[27] = molecular target: looped/cyclic peptide … (rabies virus strain ERA); remark: listed apart in the source
[28] = molecular target: looped/cyclic peptide … (rabies virus strain ERA); remark: listed apart in the source
[29] = molecular target: looped/cyclic peptide … (rabies virus strain ERA); remark: listed apart in the source
[30] = molecular target: looped/cyclic peptide … (rabies virus strain ERA); remark: listed apart in the source
[31] = molecular target: looped/cyclic peptide … (rabies virus strain ERA); remark: listed apart in the source
[32] = molecular target: looped/cyclic peptide … (rabies virus strain ERA); remark: listed apart in the source
[33] = molecular target: looped/cyclic peptide … (rabies virus strain ERA); remark: listed apart in the source
[34] = molecular target: looped/cyclic peptide … (rabies virus strain ERA); remark: listed apart in the source
[35] = molecular target: looped/cyclic peptide … (rabies virus strain ERA); remark: listed apart in the source
[36] = molecular target: looped/cyclic peptide … (rabies virus strain ERA); remark: listed apart in the source
[37] = molecular target: looped/cyclic peptide … (rabies virus strain ERA); remark: listed apart in the source
[38] = molecular target: looped/cyclic peptide … (rabies virus strain ERA); remark: listed apart in the source
[39] = molecular target: looped/cyclic peptide … (rabies virus strain ERA); remark: listed apart in the source
[40] = molecular target: looped/cyclic peptide … (rabies virus strain ERA); remark: listed apart in the source
[41] = molecular target: looped/cyclic peptide … (rabies virus strain ERA); remark: listed apart in the source
[42] = molecular target: looped/cyclic peptide … (rabies virus strain ERA); remark: listed apart in the source
[43] = molecular target: looped/cyclic peptide … (rabies virus strain ERA); remark: listed apart in the source
[44] = molecular target: looped/cyclic peptide … (rabies virus strain ERA); remark: listed apart in the source
[45] = molecular target: looped/cyclic peptide … (rabies virus strain ERA); remark: listed apart in the source
[46] = molecular target: looped/cyclic peptide … (rabies virus strain ERA); remark: listed apart in the source
[47] = molecular target: looped/cyclic peptide … (rabies virus strain ERA); remark: listed apart in the source
[48] = molecular target: looped/cyclic peptide … (rabies virus strain ERA); remark: listed apart in the source
[49] = molecular target: looped/cyclic peptide … (rabies virus strain ERA); remark: listed apart in the source
[50] = molecular target: looped/cyclic peptide … (rabies virus strain ERA); remark: listed apart in the source
[51] = molecular target: looped/cyclic peptide … (rabies virus strain ERA); remark: listed apart in the source
[52] = molecular target: looped/cyclic peptide … (rabies virus strain ERA); remark: listed apart in the source
[53] = molecular target: looped/cyclic peptide … (rabies virus strain ERA); remark: listed apart in the source
[54] = molecular target: looped/cyclic peptide … (rabies virus strain ERA); remark: listed apart in the source
[55] = molecular target: looped/cyclic peptide … (rabies virus strain ERA); remark: listed apart in the source
[56] = molecular target: looped/cyclic peptide … (rabies virus strain ERA); remark: listed apart in the source
[57] = molecular target: looped/cyclic peptide … (rabies virus strain ERA); remark: listed apart in the source
[58] = molecular target: looped/cyclic peptide … (rabies virus strain ERA); remark: listed apart in the source
[59] = molecular target: looped/cyclic peptide … (rabies virus strain ERA); remark: listed apart in the source
[60] = molecular target: looped/cyclic peptide … (rabies virus strain ERA); remark: listed apart in the source
[61] = molecular target: looped/cyclic peptide … (rabies virus strain ERA); remark: listed apart in the source

B1: human monoclonal antibody CRJA (antibody, V domains shown)
VH: EVQLLESGGGLVQPGGSLRLSCAASGFTFSNYAMSWVRQAPGKGLEWVSAISASGHSTYLADSVKGRFTISRDNSKNTLYLQMNSLRAEDTAVYYCAKDREVTMIVVLNGGFDYWGQGTRVTVSS
VL: EIVLTQSPATLSLSPGERATLACRASQTASRYLAWYQQKPGQAPRLLIYDTSNRATGIPARFSGSGSGTDFTLSISSLEPEDFAVYYCQQRFNWPWTFGQGTKVEFK
- OD value [1]: 104 OD
- OD value [2]: 68 OD
- OD value [3]: 86 OD
- OD value [4]: 54 OD
- OD value [5]: 57 OD
- OD value [6]: 38 OD
- OD value [7]: 55 OD
- OD value [8]: 79 OD
- OD value [9]: 43 OD
- OD value [10]: 90 OD
- OD value [11]: 83 OD
- OD value [12]: 69 OD
- OD value [13]: 71 OD
- OD value [14]: 96 OD
- OD value [15]: 96 OD
- OD value [16]: 66 OD
- OD value [17]: 93 OD
- OD value [18]: 57 OD
- OD value [19]: 71 OD
- OD value [20]: 105 OD
- OD value [21]: 72 OD
- OD value [22]: 45 OD
- OD value [23]: 45 OD
- OD value [24]: 79 OD
- OD value [25]: 71 OD
- OD value [26]: 83 OD
- OD value [27]: 78 OD
- OD value [28]: 78 OD
- OD value [29]: 82 OD
- OD value [30]: 87 OD
- OD value [31]: 96 OD
- OD value [32]: 112 OD
- OD value [33]: 96 OD
- OD value [34]: 90 OD
- OD value [35]: 58 OD
- OD value [36]: 78 OD
- OD value [37]: 54 OD
- OD value [38]: 46 OD
- OD value [39]: 58 OD
- OD value [40]: 72 OD
- OD value [41]: 96 OD
- OD value [42]: 83 OD
- OD value [43]: 100 OD
- OD value [44]: 137 OD
- OD value [45]: 89 OD
- OD value [46]: 93 OD
- OD value [47]: 89 OD
- OD value [48]: 105 OD
- OD value [49]: 86 OD
- OD value [50]: 41 OD
- OD value [51]: 41 OD
- OD value [52]: 62 OD
- OD value [53]: 86 OD
- OD value [54]: 125 OD
- OD value [55]: 96 OD
- OD value [56]: 136 OD
- OD value [57]: 96 OD
- OD value [58]: 110 OD
- OD value [59]: 110 OD
- OD value [60]: 86 OD
- OD value [61]: 78 OD
